Data on four compounds can be found in patent US20060188956A1, “Relaxin3-gpcr135 complexes and their production and use” (priority 2003, published 2006).

In assay [1] the target is T1, GPCR135 (Homo sapiens, UniProt Q9NSD7).
T1 sequence (Q9NSD7 1-469): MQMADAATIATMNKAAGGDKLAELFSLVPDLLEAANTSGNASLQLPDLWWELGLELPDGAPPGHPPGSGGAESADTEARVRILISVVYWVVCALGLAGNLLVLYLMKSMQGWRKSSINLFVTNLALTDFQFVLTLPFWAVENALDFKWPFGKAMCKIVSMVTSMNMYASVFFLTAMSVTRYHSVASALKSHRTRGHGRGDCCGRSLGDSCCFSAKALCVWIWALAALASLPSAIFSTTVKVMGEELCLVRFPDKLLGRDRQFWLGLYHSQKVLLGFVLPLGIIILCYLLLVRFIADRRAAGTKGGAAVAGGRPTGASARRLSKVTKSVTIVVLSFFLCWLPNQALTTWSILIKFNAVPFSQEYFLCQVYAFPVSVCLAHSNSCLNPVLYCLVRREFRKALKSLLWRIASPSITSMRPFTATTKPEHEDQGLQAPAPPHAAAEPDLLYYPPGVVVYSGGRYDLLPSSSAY
Description: Intracellular cAMP accumulation assay in CHO-K1 cells. It counts as cell-based. Details: primers complementary to the putative translation start and stop sites of the GPCR135 open reading frame; expressed in transfected cells; host or cells: CHO-K1 (transient, pCIneo vector); isolated cell membranes. Here is the method:
CHO-K1 cells stably expressing human GPCR135 (GPCR135) and un-transfected CHO-K1 cells (Control) were used for cAMP accumulation assays. Cells were treated with different stimulants as indicated. cAMP accumulated in the cells was extracted by HCl and the concentration of cAMP was measured by a ELISA kit (NEN) using ^125I-labeled cAMP and Flash plates.
CHO-K1 cells stably expressing human GPCR135 were established by transfection of GPCR135 expressing plasmid into CHO-K1 (ATCC# CCL-61) cells and culturing the transfected cells under selection of G418 (400 mg/L). The receptor expressing cells were seeded in 96-well plates at a cell density of 30,000 cells/well. Twenty-four hours later, cell culture medium was replaced with DMEM-F12 plus 2 mM IBMX (sigma). A different test compound for cAMP stimulation was added to each well. The reactions were incubated at room temperature for 20 min. Twenty micro-liters of 0.5 N HCl was added to each well to stop the reaction and extract the accumulated cAMP. The cAMP concentration was measured using a cAMP ELISA kit (NEN).
A general note: Cyclic AMP is a second messenger, typically raised through Gs and lowered through Gi signalling.

In another assay the test system is rat GPCR135. Kind of assay: Radioligand binding assay in transfected COS-7 cells. Particulars: COS-7 cells transfected with rat GPCR135 (long and short form); competitor 1 μM unlabeled relaxin3. The protocol:
(§1) COS7 cells, either untransfected (NC) or transfected with pcDNA3.1 (the vector control), human GPCR135 (hGPCR135), mouse GPCR135 (mGPCR135), rat GPCR135 long form (rGPCR135L), and rat GPCR135 short form (rGPCR135s) respectively, were used for binding assays using ^125I-labeled human relaxin3 either in the present (“Competition”) or absence (“Total Binding”) of 1 µM of unlabeled human relaxin3 as the competitor.
(§2) COS-7 cells in 6-well tissue culture plates were transfected by GPCR135 expressing plasmid using LipofectAmine. Two days after transfection, cells were washed with binding buffer: DMEM plus 50 mM Hepes, pH 7.2 and 1% BSA. ^125I-label human relaxin3 was added to each well in 1 ml of binding buffer at presence or absence 1 μM of unlabeled relaxin as competitor. The binding assays were carried out at room temperature for one hour and the unbound ligand was washed away by ice-cold PBS. The bound ^125I-relaxin3 was counted in a gamma counter.

The target of a further assay is T2, mouse GPCR135 (Mus musculus, UniProt Q8BGE9).
T2 construct: Mouse GPCR135 coding region was PCR amplified from mouse genomic DNA; expressed in transfected cells; host or cells: COS-7 (ATCC CRL-1651), transient
T2 sequence (Q8BGE9 1-472): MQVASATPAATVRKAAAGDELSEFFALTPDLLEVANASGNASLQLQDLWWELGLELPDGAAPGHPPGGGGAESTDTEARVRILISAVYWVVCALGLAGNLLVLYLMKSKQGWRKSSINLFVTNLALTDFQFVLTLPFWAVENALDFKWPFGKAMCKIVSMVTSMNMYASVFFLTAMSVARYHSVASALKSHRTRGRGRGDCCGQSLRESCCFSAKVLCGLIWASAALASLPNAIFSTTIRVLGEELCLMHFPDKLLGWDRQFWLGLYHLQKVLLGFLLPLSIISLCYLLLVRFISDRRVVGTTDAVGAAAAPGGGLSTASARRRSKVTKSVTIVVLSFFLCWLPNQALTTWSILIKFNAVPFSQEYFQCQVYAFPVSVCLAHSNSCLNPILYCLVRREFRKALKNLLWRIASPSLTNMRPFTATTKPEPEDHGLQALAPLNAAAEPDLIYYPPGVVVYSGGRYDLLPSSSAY
Described as above. The note with it: COS-7 cells transfected with mouse GPCR135; competitor 1 μM unlabeled relaxin3. The protocol: as §1, §2

Assay [2] has as its target T1, GPCR135. The description is as above. The note with it: COS-7 cells transfected with human GPCR135; competitor 1 μM unlabeled relaxin3. The protocol:
as §1, §2

The target of assay [3] is T1, GPCR135. Particulars: transient expression in Cos-1 cells; cited from earlier work.
The target in assay [4] is T1, GPCR135. Kind of assay: GTPγS binding assay with GPCR135 expressing cell membranes. It counts as biochemical. On the set-up: primers complementary to the putative translation start and stop sites of the GPCR135 open reading frame; expressed in transfected cells; host or cells: CHO-K1 (transient, pCIneo vector); isolated cell membranes. The note with it: GPCR135 expressing cell membrane. Here is the method: Frozen rat brains (5 g) were homogenized at −30° C. in 40 ml ethanol/HCl (ethanol to 0.8M HCl ratio at 3:1). The homogenate was extracted at 4° C. for 2 hr and then centrifuged at 4° C. at 20,000 g for 30 min. The supernatant was loaded onto a 2 ml SP-Sephadex C-25 column (Amersham), washed with 1 M acetic acid and eluted with 2 M pyridine and 1 M acetic acid. The eluted fraction was loaded onto a 6 ml C-18 BondElut column, washed with 0.1% TFA and eluted with 60% acetonitrile and 0.1% TFA. The eluted peptides were lyophilized, reconstituted in water, and tested for GPCR135 ligand activity using GTPγS binding assay as described in Example 5.
The expression vector was transfected into COS-7 cells using LipofectAmine (Invitrogen). Three days after the transfection, the supernatants of the transfected cells were collected, the pH was adjusted to 3.0 and loaded onto a Sephadex C-25 cation exchange column. The column was washed with 1 M acetic acid and eluted with 2 M pyridine and 1 M acetic acid. The eluted proteins were loaded on a C-18 BondElut column, washed with 0.1% TFA, and eluted with 60% acetonitrile and 0.1% TFA. […]
GPCR135 expression vector was transfected into CHO-K1 cells using Lipofectamine (Invitrogen). […] Microscint-40 (Packard) was added to each well and the plate was counted on a top counter (TopCount NTX, Packard).
In general terms: GTPγS resists hydrolysis and so accumulates on activated G proteins.

For a further assay, the target named is T3, LGR7 (Homo sapiens, UniProt Q9HBX9).
T3 sequence (Q9HBX9 1-757): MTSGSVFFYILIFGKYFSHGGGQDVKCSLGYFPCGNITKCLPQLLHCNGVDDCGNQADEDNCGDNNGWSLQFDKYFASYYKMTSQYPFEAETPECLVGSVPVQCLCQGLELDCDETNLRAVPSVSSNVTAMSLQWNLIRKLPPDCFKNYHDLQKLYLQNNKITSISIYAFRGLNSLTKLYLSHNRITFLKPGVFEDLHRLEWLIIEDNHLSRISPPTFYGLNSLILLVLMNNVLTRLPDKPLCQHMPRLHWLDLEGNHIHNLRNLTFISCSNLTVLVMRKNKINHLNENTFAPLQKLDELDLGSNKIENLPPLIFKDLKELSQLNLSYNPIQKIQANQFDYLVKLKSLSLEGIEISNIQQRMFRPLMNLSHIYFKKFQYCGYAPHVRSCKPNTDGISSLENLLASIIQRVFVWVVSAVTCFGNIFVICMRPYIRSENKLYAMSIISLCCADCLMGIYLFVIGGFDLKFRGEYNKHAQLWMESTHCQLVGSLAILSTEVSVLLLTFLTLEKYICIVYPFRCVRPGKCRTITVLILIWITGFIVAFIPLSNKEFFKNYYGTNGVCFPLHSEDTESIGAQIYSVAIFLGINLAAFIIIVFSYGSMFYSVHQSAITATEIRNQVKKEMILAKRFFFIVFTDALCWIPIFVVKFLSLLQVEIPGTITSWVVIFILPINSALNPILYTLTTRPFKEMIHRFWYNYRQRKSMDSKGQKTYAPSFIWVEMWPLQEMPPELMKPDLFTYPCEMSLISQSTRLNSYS
Particulars: cited from earlier work.

In assay [5] the target is T1, GPCR135. Description: Ca2+ mobilization assay (FLIPR) in HEK293 cells co-expressing GPCR135 and Gqi5. Details: primers complementary to the putative translation start and stop sites of the GPCR135 open reading frame; expressed in transfected cells; host or cells: HEK293 (ATCC CRL-1573), transient co-transfection with Gqi5. It counts as cell-based. The protocol: Using LipofectAmine, human embryonic kidney (HEK) 293 cells were co-transfected with a plasmid expressing GPCR135 receptor and a plasmid expressing Gqi5, a mutant G-protein that translates the activation of GPCR135 into an increased intracellular Ca^2+, or increased Ca^2+ mobilization (Conklin et al., 1993, Nature 363: 274-276). Two days after transfection, cells were detached with PBS plus 10 mM EDTA, pH 8.0. The detached cells were washed with DMEM-F12 medium (without phenol red, Invitrogen) and seeded in black poly-D lysine coated 96-well plates at a cell density of 50,000 cell/well. Calcium dye, Fluo-3 (AM) (TEFLABS, Austin, Tex.) was loaded into the cells and ligand stimulated calcium mobilization was monitored using FLIPR (Molecular Device).
HEK293 cells, untransfected (293 Control) or transfected by Gqi5 (293/Gqi5) alone or human GPCR135 (GPCR135) alone, or co-transfected by human GPCR135 and Gqi5 (GPCR135/Gqi5), were used for Ca^2+ mobilization assays under stimulation of relaxin3 as the ligand. Ligand-stimulated intracellular mobilization was monitored using FLIPR.

Chain of rat GPCR135 (as listed by the source): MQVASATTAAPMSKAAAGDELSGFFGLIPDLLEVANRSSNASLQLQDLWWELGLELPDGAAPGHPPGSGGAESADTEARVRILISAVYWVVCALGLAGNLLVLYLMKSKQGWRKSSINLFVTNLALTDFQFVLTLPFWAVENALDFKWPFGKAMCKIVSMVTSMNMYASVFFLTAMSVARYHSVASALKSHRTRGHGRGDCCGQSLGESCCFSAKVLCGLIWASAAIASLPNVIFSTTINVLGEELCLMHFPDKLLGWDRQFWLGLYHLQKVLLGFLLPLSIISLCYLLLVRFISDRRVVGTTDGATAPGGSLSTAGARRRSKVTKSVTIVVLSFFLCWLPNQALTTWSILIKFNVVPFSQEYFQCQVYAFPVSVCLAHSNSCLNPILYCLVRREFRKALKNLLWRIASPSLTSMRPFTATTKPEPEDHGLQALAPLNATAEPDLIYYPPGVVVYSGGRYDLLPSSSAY

As for `C=C[C@@]1(C)CC(=O)[C@]2(O)[C@@]3(C)[C@@H](O)CCC(C)(C)[C@@H]3[C@H](O)[C@H](OC(C)=O)[C@@]2(C)O1` [forskalin, reference compound], the “intracellular concentration of cAMP” value on GPCR135 [1] (in the absence of GPCR135) and on GPCR135 [1] (in the presence of GPCR135) was “increases” in each case.

With “^125I-relaxin3: human relaxin3 labeled with iodine-125, used as radioligand”, the “specific binding to GPCR135” value with rat GPCR135, with mouse GPCR135 and in the assay with GPCR135 [2] was “specifically binds” each time.

Turning to “angiotensin II (DRVYIHPF; Angiotensin-2; UniProt P01019 25-32, looked up)”, the “binding sites on GPCR135” value in the assay with GPCR135 [3] is given as “did not produce any binding sites”.

Consider “relaxin3: secreted protein consisting of relaxin3 polypeptide chains A and B linked by disulfide bridges; recombinant human, natural ligand of GPCR135”, for which the “forskalin-stimulated cAMP accumulation” value with GPCR135 [1] (cells expressing GPCR135) is “inhibits”. The “intracellular concentration of cAMP” value with GPCR135 [1] (in the presence of GPCR135) was “decreases”. For the same compound, in the assay with GPCR135 [4], the “stimulation of GTPγS binding” value is “potently stimulated”. Further, the “activation of LGR7” value with LGR7 is reported as “activates”. Besides, in the assay with GPCR135 [5], the “Ca2+ mobilization” value was “stimulates”.
